Measurements as given in patent publication US20260242735A1 (UNIVERSIT T BASEL, published 2026).

How the values were obtained:
Assay in all cases: alanine scan, flow cytometry, HEK293-T;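 also: antibody binding to each alanine-substituted CD33 mutant expressed transiently in HEK293-T, read as fluorescence minus background, mean of duplicates, relative to wild-type CD33 set as 100%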
[1] = molecular target: human CD33 G172A (human, UniProt P20138 18-364)
[2] = molecular target: human CD33 A217S (human, UniProt P20138 18-364)
[3] = molecular target: human CD33 R225A (human, UniProt P20138 18-364)
[4] = molecular target: human CD33 Q236A (human, UniProt P20138 18-364)
[5] = molecular target: human CD33 T240A (human, UniProt P20138 18-364)
[6] = molecular target: human CD33 I242A (human, UniProt P20138 18-364)
[7] = molecular target: human CD33 T253A (human, UniProt P20138 18-364)
[8] = molecular target: human CD33 A272S (human, UniProt P20138 18-364)
[9] = molecular target: human CD33 L275A (human, UniProt P20138 18-364)
[10] = molecular target: human CD33 H285A (human, UniProt P20138 18-364)
[11] = molecular target: human CD33 S305A (human, UniProt P20138 18-364)
[12] = molecular target: human CD33 K315A (human, UniProt P20138 18-364)
Chain of human CD33 K315A (P20138 18-364 K315A limits assumed): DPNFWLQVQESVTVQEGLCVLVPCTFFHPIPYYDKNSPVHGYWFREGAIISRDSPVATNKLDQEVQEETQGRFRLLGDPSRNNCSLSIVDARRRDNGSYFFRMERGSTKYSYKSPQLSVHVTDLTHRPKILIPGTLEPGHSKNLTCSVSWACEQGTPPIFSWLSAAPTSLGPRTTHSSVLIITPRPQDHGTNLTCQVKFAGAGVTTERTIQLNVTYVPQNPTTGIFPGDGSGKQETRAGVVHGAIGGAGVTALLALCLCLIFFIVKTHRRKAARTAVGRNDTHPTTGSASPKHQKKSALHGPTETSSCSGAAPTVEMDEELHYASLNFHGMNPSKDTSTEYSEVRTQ

Chain of human CD33 T240A (P20138 18-364 T240A limits assumed): as the sequence (P20138 18-364 K315A limits assumed) above, with T223A, A298K counted along it
Chain of human CD33 T253A (P20138 18-364 T253A limits assumed): as the sequence (P20138 18-364 K315A limits assumed) above, with T236A, A298K counted along it
Chain of human CD33 A272S (P20138 18-364 A272S limits assumed): as the sequence (P20138 18-364 K315A limits assumed) above, with A255S, A298K counted along it
Chain of human CD33 L275A (P20138 18-364 L275A limits assumed): as the sequence (P20138 18-364 K315A limits assumed) above, with L258A, A298K counted along it
Chain of human CD33 Q236A (P20138 18-364 Q236A limits assumed): as the sequence (P20138 18-364 K315A limits assumed) above, with Q219A, A298K counted along it
Chain of human CD33 A217S (P20138 18-364 A217S limits assumed): as the sequence (P20138 18-364 K315A limits assumed) above, with A200S, A298K counted along it
Chain of human CD33 G172A (P20138 18-364 G172A limits assumed): as the sequence (P20138 18-364 K315A limits assumed) above, with G155A, A298K counted along it
Chain of human CD33 I242A (P20138 18-364 I242A limits assumed): as the sequence (P20138 18-364 K315A limits assumed) above, with I225A, A298K counted along it
Chain of human CD33 S305A (P20138 18-364 S305A limits assumed): as the sequence (P20138 18-364 K315A limits assumed) above, with S288A, A298K counted along it
Chain of human CD33 H285A (P20138 18-364 H285A limits assumed): as the sequence (P20138 18-364 K315A limits assumed) above, with H268A, A298K counted along it
Chain of human CD33 R225A (P20138 18-364 R225A limits assumed): as the sequence (P20138 18-364 K315A limits assumed) above, with R208A, A298K counted along it

Binder	Mean % WT Binding [1] [%]	Mean % WT Binding [2] [%]	Mean % WT Binding [3] [%]	Mean % WT Binding [4] [%]	Mean % WT Binding [5] [%]	Mean % WT Binding [6] [%]	Mean % WT Binding [7] [% WT binding]	Mean % WT Binding [8] [% WT binding]	Mean % WT Binding [9] [% WT binding]	Mean % WT Binding [10] [% WT binding]	Mean % WT Binding [11] [% WT binding]	Mean % WT Binding [12] [% WT binding]
Refmab #3 (antibody, V domains shown, In the alanine scan antibodies were used as IgG or Fab) VH: QVQLVQSGAEVKKPGSSVKVSCKASGYTFTDYNMHWVRQAPGQGLEWIGYIYPYNGGTGYNQKFKSKATITADESTNTAYMELSSLRSEDTAVYYCARGRPAMDYWGQGTLVTVSS VL: DIQMTQSPSSLSASVGDRVTITCRASESVDNYGISFMNWFQQKPGKAPKLLIYAASNQGSGVPSRFSGSGSGTDFTLTISSLQPDDFATYYCQQSKEVPWTFGQGTKVEIK	107	148	98.9	104	97.9	128	–	–	–	–	–	–
Refmab #3 (antibody, V domains shown, The alanine scan used IgG or Fab) VH: QVQLVQSGAEVKKPGSSVKVSCKASGYTFTDYNMHWVRQAPGQGLEWIGYIYPYNGGTGYNQKFKSKATITADESTNTAYMELSSLRSEDTAVYYCARGRPAMDYWGQGTLVTVSS VL: DIQMTQSPSSLSASVGDRVTITCRASESVDNYGISFMNWFQQKPGKAPKLLIYAASNQGSGVPSRFSGSGSGTDFTLTISSLQPDDFATYYCQQSKEVPWTFGQGTKVEIK	–	–	–	–	–	–	98.1	105	123	94.3	103	136
Refmab #4 (antibody, V domains shown, In the alanine scan antibodies were used as IgG or Fab) VH: QVQLVQSGAEVKKPGESVKVSCKASGYTFTNYGMNWVKQAPGQGLEWMGWINTYTGEPTYADKFQGRVTMTTDTSTSTAYMEIRNLGGDDTAVYYCARWSWSDGYYVYFDYWGQGTSVTVSS VL: DIVMTQSPDSLTVSLGERTTINCKSSQSVLDSSTNKNSLAWYQQKPGQPPKLLLSWASTRESGIPDRFSGSGSGTDFTLTIDSPQPEDSATYYCQQSAHFPITFGQGTRLEIK	90.7	61.1	108	103	76.8	104	–	–	–	–	–	–
Refmab #4 (antibody, V domains shown, The alanine scan used IgG or Fab) VH: QVQLVQSGAEVKKPGESVKVSCKASGYTFTNYGMNWVKQAPGQGLEWMGWINTYTGEPTYADKFQGRVTMTTDTSTSTAYMEIRNLGGDDTAVYYCARWSWSDGYYVYFDYWGQGTSVTVSS VL: DIVMTQSPDSLTVSLGERTTINCKSSQSVLDSSTNKNSLAWYQQKPGQPPKLLLSWASTRESGIPDRFSGSGSGTDFTLTIDSPQPEDSATYYCQQSAHFPITFGQGTRLEIK	–	–	–	–	–	–	108	107	99.3	95.2	104	48.4
Refmab #2 (antibody, V domains shown, In the alanine scan antibodies were used as IgG or Fab) VH: QVQLVQSGAEVKKPGSSVKVSCKASGGTFSDYAISWVRQAPGQGLEWMGRIIPILGVADYAQKFQGRVTITADKSTRTAYMELSSLRSEDTAVYYCARNWADAFDIWGQGTMVTVSS VL: DIQLTQSPSSLSASVGDRVTITCRASQGISSVLAWYQQKPGKAPKLLIYDASSLESGVPSRFSGSGSGTDFTLTISSLQPEDFATYYCQQFDSSITFGQGTKLEIK	109	109	123	111	111	98.6	–	–	–	–	–	–
Refmab #2 (antibody, V domains shown, The alanine scan used IgG or Fab) VH: QVQLVQSGAEVKKPGSSVKVSCKASGGTFSDYAISWVRQAPGQGLEWMGRIIPILGVADYAQKFQGRVTITADKSTRTAYMELSSLRSEDTAVYYCARNWADAFDIWGQGTMVTVSS VL: DIQLTQSPSSLSASVGDRVTITCRASQGISSVLAWYQQKPGKAPKLLIYDASSLESGVPSRFSGSGSGTDFTLTISSLQPEDFATYYCQQFDSSITFGQGTKLEIK	–	–	–	–	–	–	104	110	115	109	107	111
Refmab #1 (antibody, V domains shown, In the alanine scan antibodies were used as IgG or Fab; also called hP67.6) VH: EVQLVQSGAEVKKPGSSVKVSCKASGYTITDSNIHWVRQAPGQSLEWIGYIYPYNGGTDYNQKFKNRATLTVDNPTNTAYMELSSLRSEDTAFYYCVNGNPWLAYWGQGTLVTVSS VL: DIQLTQSPSTLSASVGDRVTITCRASESLDNYGIRFLTWFQQKPGKAPKLLMYAASNQGSGVPSRFSGSGSGTEFTLTISSLQPDDFATYYCQQTKEVPWSFGQGTKVEVK	86	80.2	97.8	89.5	111	77.9	–	–	–	–	–	–
Refmab #1 (antibody, V domains shown, The alanine scan used IgG or Fab; also called hP67.6) VH: EVQLVQSGAEVKKPGSSVKVSCKASGYTITDSNIHWVRQAPGQSLEWIGYIYPYNGGTDYNQKFKNRATLTVDNPTNTAYMELSSLRSEDTAFYYCVNGNPWLAYWGQGTLVTVSS VL: DIQLTQSPSTLSASVGDRVTITCRASESLDNYGIRFLTWFQQKPGKAPKLLMYAASNQGSGVPSRFSGSGSGTEFTLTISSLQPDDFATYYCQQTKEVPWSFGQGTKVEVK	–	–	–	–	–	–	94.5	87.6	88.7	100	86.4	80.6
